Experimental data published in patent publication US6051232.

Molecular target: wild type RT1.A^a (rat MHC class I antigen) on transfected BUF (RT1^b) Morris hepatoma 7316A cells (rat)
Test: flow cytometry on BUF hepatoma cells transfected with WT-RT1.A^a, FITC rabbit anti-rat Ig

“R2/15S anti-rat RT1.A^a class I polymorphic monoclonal antibody (tool reagent)” showed a positive staining (percent of cells) greater than 90%.
